Laboratory results taken from article PMC10085699.

Key:
Sen1-HD = biological target: T1, Sen1-HD (UniProt Q00416 1095-1904); assay: EMSA
T1 sequence: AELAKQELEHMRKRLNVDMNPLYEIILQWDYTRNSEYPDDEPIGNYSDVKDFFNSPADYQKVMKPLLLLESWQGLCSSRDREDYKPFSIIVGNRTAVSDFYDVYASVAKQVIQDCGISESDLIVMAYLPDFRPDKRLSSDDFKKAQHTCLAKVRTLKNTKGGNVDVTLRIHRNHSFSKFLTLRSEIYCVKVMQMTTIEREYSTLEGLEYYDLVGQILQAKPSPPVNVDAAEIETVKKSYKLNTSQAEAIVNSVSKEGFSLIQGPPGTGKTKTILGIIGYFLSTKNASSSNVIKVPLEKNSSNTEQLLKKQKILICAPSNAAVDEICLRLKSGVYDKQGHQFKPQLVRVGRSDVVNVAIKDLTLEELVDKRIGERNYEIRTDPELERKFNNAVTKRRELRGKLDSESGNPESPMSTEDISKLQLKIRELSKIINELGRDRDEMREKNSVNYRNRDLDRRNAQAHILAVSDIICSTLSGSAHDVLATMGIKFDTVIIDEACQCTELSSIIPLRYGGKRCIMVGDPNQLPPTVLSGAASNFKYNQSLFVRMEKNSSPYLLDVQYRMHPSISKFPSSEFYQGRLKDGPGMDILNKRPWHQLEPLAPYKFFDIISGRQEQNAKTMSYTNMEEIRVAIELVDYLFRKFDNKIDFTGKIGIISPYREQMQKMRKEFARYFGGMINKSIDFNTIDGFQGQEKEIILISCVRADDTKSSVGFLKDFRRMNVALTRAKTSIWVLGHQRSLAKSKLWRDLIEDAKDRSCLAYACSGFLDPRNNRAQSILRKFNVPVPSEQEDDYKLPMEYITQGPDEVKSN

SETX-HD-V1884T = biological target: T2, SETX-HD-V1884T (Homo sapiens, UniProt Q7Z333 1674-2677, V1884T); assay: EMSA
T2 sequence: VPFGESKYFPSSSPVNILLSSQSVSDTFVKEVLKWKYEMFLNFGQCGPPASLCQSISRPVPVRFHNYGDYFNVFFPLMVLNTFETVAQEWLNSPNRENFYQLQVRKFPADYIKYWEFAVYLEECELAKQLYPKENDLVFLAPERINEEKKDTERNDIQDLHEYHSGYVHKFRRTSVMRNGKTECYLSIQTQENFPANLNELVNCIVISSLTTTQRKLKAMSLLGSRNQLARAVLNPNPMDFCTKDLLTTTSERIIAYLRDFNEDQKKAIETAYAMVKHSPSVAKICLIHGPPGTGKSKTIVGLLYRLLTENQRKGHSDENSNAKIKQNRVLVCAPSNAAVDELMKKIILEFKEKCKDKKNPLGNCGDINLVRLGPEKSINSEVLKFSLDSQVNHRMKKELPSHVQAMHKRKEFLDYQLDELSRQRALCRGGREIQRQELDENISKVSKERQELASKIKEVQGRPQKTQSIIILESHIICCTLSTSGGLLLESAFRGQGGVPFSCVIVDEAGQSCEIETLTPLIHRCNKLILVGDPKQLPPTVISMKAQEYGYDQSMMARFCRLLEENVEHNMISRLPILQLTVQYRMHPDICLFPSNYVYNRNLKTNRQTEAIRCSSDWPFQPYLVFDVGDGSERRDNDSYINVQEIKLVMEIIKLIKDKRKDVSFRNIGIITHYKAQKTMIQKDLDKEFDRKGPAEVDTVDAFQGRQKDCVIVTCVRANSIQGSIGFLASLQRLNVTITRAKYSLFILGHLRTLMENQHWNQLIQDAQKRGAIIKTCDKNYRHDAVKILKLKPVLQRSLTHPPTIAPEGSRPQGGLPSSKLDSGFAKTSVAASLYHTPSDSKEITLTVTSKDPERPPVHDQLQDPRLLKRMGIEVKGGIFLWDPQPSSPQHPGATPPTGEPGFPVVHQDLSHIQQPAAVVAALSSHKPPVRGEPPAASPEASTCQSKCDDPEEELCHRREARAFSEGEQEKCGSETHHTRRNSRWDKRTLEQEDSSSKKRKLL

B1: ssRNA pRMS678 (61 nt) (ssRNA)
RNA: UUGUCUUCUCAUAAAUUUAAUCCCCGUACGCUUAUACUCCUUUAACUACCCAGUCUUCCCG
Sen1-HD
  binding result: binds
SETX-HD-V1884T
  binding result: binds
